The values that follow come from the nanobody polyreactivity screen of Harvey et al. (2022).

The nature of this data set: yeast display, Sf9 membrane polyspecificity reagent, FACS + sequencing; frameworks hold sequencing errors. An outline of the steps: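 Galactose-induced (36–48 hours) yeast carrying a synthetic nanobody display library were exposed to 10% biotinylated, detergent-solubilized Sf9 membrane reagent at 4 °C for 1 hour. FACS followed streptavidin microbead enrichment, using low and high (top ~1%) gates for expression (anti-HA) and reagent binding (streptavidin). Colony PCR, MiSeq 2 × 250 sequencing and CDR-length filtering followed. Labels for polyreactivity reflect the gate of origin.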
In the case of “QVQLVESGGGIVQAGGSLRLSCAASGSIFYVYAMGWYRQAPGKERELVAAIYSGASTYYADSVKGRFTISRDNAKNTVYLQMNSLKPEDTAVYYCAKRWRRRFVDVWSLYDYWGQGTQVTVSS”, the “polyreactivity (PSR sort gate)” value is “low polyreactivity”. Consider “QVQLVESGGGLVQAGGSLRLSCDASGSTFAYNVMGWYRQAPGKERELVAAISRSGGSTYYADSVKGRFTISRDNAKNTVYLQMNSLKPEDTAVYYCAKLFRPRLQDGYWGQGSQVTVSS”, for which the “polyreactivity (PSR sort gate)” value is “high polyreactivity”. Next, “QVQLVESGGGLVQAGGSLRLSCAASGRTLRTYTMGWYRQAPGKERELVAAISSSDDSTYYADSVKGRFTISRDNAKNTVYLQMNSLKPEDTAVYYCAKDGLYPTEYGYWGQGTQVTVSS”: “high polyreactivity”; “QVQLVESGGGLVQAGGSLRLSCAATGSILEYYVMGWYRLAPGKERELVAAIRGGGSTYYADAVKGRFTISRDNAKNSVYLQMNSLKPEDTAVEYCAKDSQPARDFDYWGQGTQVTVSS”: “low polyreactivity”.

On to “QVQLVESGGGLVQAGGSLRVSCAASGFTFPWYAMGWYRPAPGKERELVASISYRGDSTYYADSVKGRFTISRDNAKITVYLQMNSLKPEDTSVYYCNKRLDSYYLPGFDYWGQGTQVTVSS”, for which the “polyreactivity (PSR sort gate)” value is reported as “low polyreactivity”. The entry for “QVQLGESGGGLVQAGGSLRVICAASGFIFRDYAMGWYIQAPGKERELFAAIRSTTGSTYYADSVKGRFTISRDNSKNTVYLQMNSLKPEDTAVYYCAAAYPFYADMDYSGQGTQVTVSS” is “low polyreactivity”. Next, “QVQHVESGGGLVQAGGSLRLSCAASGSTIYWYAMGWYRQAPGKERELVAAISLSGGSTYYADSVKGRFTISRDNAKNTVYLQMNSLKPEDTAVYYCAARTSYYVYRHPSGRYDYWGQGTQVSVSS”: “low polyreactivity”; “QVQLVESGGGLVQAGGSLRLSCAASGSIFGSYAMGWYRQAPGKERELVAGITRRSGSTYYADSVKGRFTISRDNAKNTVYLQMNSLKPEDTAVYYCAADTWFGMDYWGQGTQVTVSS”: “high polyreactivity”. Next, “QVQLEESGGGLVQAGGSLRLSCAASGRILYGYAKGSYRQAPGKERELVASITWSGGSTYADSVKGRFTFSRDNAKNTVYLQMNSLKTEDTSVYYCSTRRGQKWQWLTYGYWGQGTQVTVSS”: “low polyreactivity”. For the sequence “QVQLVESGGGLVQAGGSLSLSCAASGSTFDYYAMGWYRQAPGKERELVADITYSGGSTYYADSVKGRFTISRDNAKNTVYLQMNSLKPEDTAVYYCNAYYTVYTRYDYWGQGTQVTVSS”, the “polyreactivity (PSR sort gate)” value was “high polyreactivity”. Consider “QVQLVESGGGLVQAGGSLRLSCVPPDMGWYRQAPGKERELVAAISRGGITNYADSVKRRFTISRDNAKNTVYLQMNSLKPEDTAVYYCAAEYTYYSYGGNYDYWGQGTQVTVSS”, for which the “polyreactivity (PSR sort gate)” value was “low polyreactivity”. The entry for “QVQLVESGGGLVQAGGSLRLSCAASGSTFVQNAMGWYRQAPGKERELVAAISLRGGSTYYADSVKGRFTISRDNAKNTVYLQMNSLKPEDTAVYYCAADVSQRDGSVRGYDSWGQDTQVTVSS” is “high polyreactivity”.

Turning to “QVQLVESGGGLVQAGGSLRLSCAASGFTFEYNDMGWYRQAPGIERELVDSISYDSDSTYYADSVKGRFTISRDNAKNTVYLQMNRLKPEDTAVYYCNAGSSYHEYGYWGQGTQVTVSS”, the “polyreactivity (PSR sort gate)” value is “high polyreactivity”. Next, “QVQLVDSGGGLVQAGGSLRLSCSASGYTFALYSMGWYRQAPGKERELVADINIGGASTYYADSVKGRFTISRDNAKNTVYLQMNSLKPEDTAVYYCAKEYYDGYFPTFDYDYWGQGTQVTVSS”: “low polyreactivity”; “HVQLVESGGGLVQAGGSLRLSCAASGFIFKPYDMGLYRQAPGKERELVAAISWTGTSTYYADSVKGRFTISRDNAKNTVYLQINSLKPEDTAVFYCAKRWSAGAQHGFDYWGQGTQVTLSS”: “low polyreactivity”. As for “QVQLVESGGGLDQAGGSLRLSCAASGFIYSWYAMGWYRQAPGKERELVAAISSSGVSTYYADSVKGRFTISRDNAKNTVYLQMNSLKPEDTAVYYCNAYGSVWDRGEYDYEYWGQGTQVTVSS”, the “polyreactivity (PSR sort gate)” value was “low polyreactivity”.

Consider “QVQLQESGRGLVQAGGSLRLSCAASGSISILQSMGWYRQAPGKERELVAGINWGATTYYADSVKGRLTTSRDYAKNTVYLQMNSLKPEDTAVYYCAVPTYYTYPLLYWGQGTQVTVSS”, for which the “polyreactivity (PSR sort gate)” value was “low polyreactivity”. The entry for “QVQLVESGGGLVQAGGSLRLTCAASGITFGDYALGWYRQAPGKERELVAAITRRSGNTRYADSVKGRFTISRDNAKNTVYLQMNSLKPEDTAVYYCNARWFSYARGFENGYWGQGTQVTVSS” is “high polyreactivity”; for “QVQLVESGGGLVQAGGSLRLSCAASGSIFDHYARGWYRQAPGKDRELVAAISRSAGSTYYADSVKGRFTISRDHAKNTVYLQMNSLKPEDTAVYYCAADGKYYHRRPGWPIYDYWGQGTQVTVSS” it is “high polyreactivity”. Next, “QVQLVESGGGLVQAGGSLRLSCAASGLTFKDNAMGWYRQAPGKERELVAAISKGGGSTFYADSVKGRFTISRDYAKNTVYFQMNSLKPEDTAVYYCNADVGYRGGEEVYWGQGTQVTVSS”: “low polyreactivity”; “QVQLVESGGGLVQAGGRLRLSCAASGRTFATNAMGWYRQAPGKERELVADISGGGSTYYADSVKGRFTISRDNAKNTVYLQMNSLKPEDTAVYYCAARDYHWFQWYDYWGQGTQVTVSS”: “low polyreactivity”. Next, “QVQLVESGGGLVQAGGSLRLSCAASGSIFKAYAMGWYSQAPGKERELVAAITWSGGSTYYADSVKGRFTISRDNAKYTVYLQMNSLKPEDTAVYYCAADRLEGYYEDDATGFDYWGQGTQVTVSS”: “low polyreactivity”; “QVQLVESGGGLVQAGGSLRLSCAASGSTFASNAMGWYRQAPGKDRELVADLSSGGSTYADSVKGRFTISRDNAKNTVYLQMNSLKPVDTAVYYCNNRSYGFLRGPRKTIKYYRYGYWGQGTQVTVSS”: “high polyreactivity”; “QVQLVESGGGLVQAGGSLRLSCAASGSIFYHYAMGWYRQAPGKERELVAAISSGGSTSYADSVKGRFTISRDNAKNTVYLQMNSLKPEDTAVYYCNARRIRSRSWKYDYWGQGTQVTVSS”: “low polyreactivity”.

As for “QVQLVESGGGLVQAGGSLRLSCAASGFTFFVYAMGWYRQAPGKERELVATINWSGASTYYADSVKGRFTISRDNAKNTVYLQMKSLKPEDTAVYYCAKDGHYPLVYLAFDYWGQGTQVTVSS”, the “polyreactivity (PSR sort gate)” value was “low polyreactivity”.

For the sequence “QVQLVESGGGLVQAGGSLRLSCAASGRIFPWYTMGWYRQAPGKERELVAVISSGGRTHYADSVKGRFTISRDNAKNTVYLQMNSLKPEDTAVYYCAAESRYQRYDYWGQGTQVTVSS”, the “polyreactivity (PSR sort gate)” value was “high polyreactivity”. Turning to “QVHLVDSGGGLVQAGGSLRLRCAASGSSFNPNAMGLYRQDPGKERELVAAITSGGSTYYADSVKGRFTISRDNAKNTVYLQINSLKQEDTAVYYCNKALTSKDYPVRTVERDYWGQGTKVTVSS”, the “polyreactivity (PSR sort gate)” value is given as “low polyreactivity”. Next, “QVQLVESGGGLVQAGGSLRLSCAASGFIFKYYAMGWYRHAPGKERELVAAISRRGGSTFYADSVKGRFTISRDNAKNTVYLQMNSLKPEDTAVYYCAKYPQTLPIDVWTWIHDYWGQGTQVTVSS”: “high polyreactivity”; “QVQLVESGGGLVQAGGSLRLSCAASGRTIQWYAMGWYRQAPGKERELVAGISFSGGSTYYADSVKGRFTISRDNAKNTVYLQMNSLKPEDTAVYYCNAQGYTTYRGDYWGQGTQVTVSS”: “high polyreactivity”. Next, “QVQLVESVGGLVQAGGSLRLSCAASGRIFVHYVMGWYRQAPGKERELVAAISRSGGRTYYADSVKGRFTISRDNAKNSVYLQMNSLKPEDTAVYYCATDASTYKYDYWGQGTQVTVSS”: “high polyreactivity”; “QVQLVESGGGLVQAGGSLRLSCAASGRIFFANAMGWYRQAPGKERELVAAISYSGTSTYYADSVKGRFTISRDNAKNSVYLQMNSLKPEDTAVYYCNAGRYIKMGDWGQGTQVTVSS”: “high polyreactivity”; “QFQLVESGGGLVQAGGSLRLSCAASGFILWTYAMGWYRQAPGKERELVAAISTTGGSTYYADSVKGRFTISRDNAKNTVYCQMNSLKPEDTAVYYCAAQVGRGYEVYPVYKYGYWGQGTQVTVSS”: “high polyreactivity”. As to “QVQLVESGGGLVQAGGSLRLSCAASGRIFPSYAMGWYRPAPGKERELVAAITRGSTTYYADSVKGRFTISRDNAKNTVYLQMNSLKPEDTAVYYCAAEENLAYYFKYYYWGQGTQVTVSS”, the “polyreactivity (PSR sort gate)” value is listed as “low polyreactivity”. Regarding “QFQLVESGGGLVHAGGSLRLSCAATGSTLPGYAMGWYRQAPGKERELVAAITSRGGTTYYADSVKGRFTISCDNAKKTVYLQMNSLKPEDTAVYYCAAYTSYASDYWGQGTQVTVSS”, the “polyreactivity (PSR sort gate)” value is given as “high polyreactivity”.

On to “QVQLVESGGGLVQAGGSLRLTCAASGRTFSYNAMGWYRQAPGKERELVAAISYDGGRTYYADSVKGRFTISRDNAKNSVYLQMNSLKPEDTAVYFCAAYPYRCPHPWTIGDYWGQGTQVTVSS”, for which the “polyreactivity (PSR sort gate)” value is on record as “low polyreactivity”. With “QVQLVESGGGLVQAGGSLRLTCSASGFIFRYYAKGWSRQAPGKERELVAAISTSGGSTYYADSVKGRFTISRDIAKNTVYLQMNSLKPEDTAVYYCAASTNTDRDFWGQGTQVTVSS”, the “polyreactivity (PSR sort gate)” value is reported as “high polyreactivity”.

As to “QVQLVESGGGLVQAGGSLRLSCAASGRIFKNYAMGWYRQAPGKERELVAAITWSGGRTYYADSVKGRFTISRDNAKNTVYLQMNSLKPEDTAVYYCATAARRGPTSIEPFGYGSWGQGTQVTVSS”, the “polyreactivity (PSR sort gate)” value is recorded as “high polyreactivity”. The entry for “QVQLVESVGGLVQAGGSLRLSCAASGRIFWNYAMGWYRQATGKERELVASISYRGGSTYYADSVKGRFTISRDNAKNTVYLQMNSLKPEDTAVYYCAARTRQARRTDYGYWGQGTQVTVSS” is “high polyreactivity”; for “QVQLVESGGGLVQAGGSLRISSAAYGRIIYGYAMGWYRQAPGKERELVAAITWRGTSTYYADSVKGRFTISRDNAKNTVYLQMNCLKPEDTAVYYCNAVRSLAYWGQGTQVTVSS” it is “high polyreactivity”; for “QVQLVESGGGLVQAGGSLRLSCAASGLTFADYAMGWYRKAPGKERELVAAISRRGGSTYYADSVKGRFTISRDNAKNTVYLQMNSLKPEDTAVYYCNAAYVYGDQARGGYWGQGTQVTVSS” it is “high polyreactivity”. Next, “QVQLVKSGGGLVQAGGSLRLSCAASGSIFGYNTKGWYRQAPGKERELVATITYRGGSTYYADSVKGRFTISRDNAKNTVYLQMNRLKPEDTAVYYCARRVTRYPDTTWVSAGDYWGQGTQVTVSS”: “high polyreactivity”.
